{"source": "the DeepSol protein solubility set", "data": [{"assay": "soluble on expression in E. coli; label from the status in PepcDB or PDB records", "values": [{"sequence": "GAMVSGQIMHAVGEEGGHVKYVCKIENYDQSTQVTWYFGVRQLENSEKYEITYEDGVAILYVKDITKLDDGTYRCKVVNDYGEDSSYAELFVKGVRE", "soluble on expression in E. coli": "soluble"}, {"sequence": "MFGNSYGGYLANLCAKIAPWSIDFILDNSSFVNLFGNIFRLIGFGKEIDFTRYHGTYDDTLFKNIFLYLSDKTYWNNNKFSKNYFSNARKIIREPLNKEHLIIQSLYPNPKYILYHSIFDERSPFKNKENFVHILKELNFKVEFFAISQVDNKFIKNLNHGMGLSTKLFFKKHLLQILKEPLQDKICKKEVSYKCDELVYTFKEENHQIILNITN", "soluble on expression in E. coli": "not soluble"}, {"sequence": "MGSDKIHHHHHHANTQTNIQLERTSSDIEHALYYASFAANSHNTQSWKVNLDPKQKRLGVFLNNKRSLNVVDPNNRELYISIGCYIQSLKKSFEAYGYNVSISNIAPSKENKYQVVLINYQKLKNNKINNKQLDIIQKRHTDKRKFQKKPINRTVVSSLIKKYNNVYYYAKGSKTFKYLQKGSLAAAAKQYKNQDFLKEQGKWLRFSNQEVEKKQDGISGDMLGLNPIIKTLYYLTSNHKNATSNNFVKQSKNTLINQVENCAGFFVITGEQNISKWIAVGEKSQAFWYDCVRNNIAVQPISAMIEIPSYNQKLQQNLGKSQPVQLILRVGYVNSYGKNVGPRRNLKDYITVKK", "soluble on expression in E. coli": "not soluble"}, {"sequence": "MSLGREKGLSTFLFLLLFSISLHAQRQDILLNNNWNFRFSHQVQGDTRRVDLPHTWNAQDALAGKIDYKRGIGNYEKALYIRPEWKGKRLFLRFDGVNSIADVFINRKHIGEHRGGYGAFIFEITDLVKYGEKNSVLVRANNGEQLDIMPLVGDFNFYGGIYRDVHLLITDETCISPLDYASPGVYLVQEVVSPQEAKVCAKVNLSNRAADGTAELQVLVTDGTKVICKESRNVSLKQGADILEQLPLLIQKPRLWNGCEDPFMYQVSISLHKDGKQIDSVTQPLGLRYYHTDPDKGFFLNGKHLPLHGVCRHQDRAEVGNALRPQHHEEDVALMREMGVNAIRLAHYPQATYMYDLMDKHGIVTWAEIPFVGPGGYADKGFVDQASFRENGKQQLIELIRQHYNHPSICFWGLFNELKEVGDNPVEYVKELNALAKQEDPTRPTTSASNQDGNLNFITENIAWNRYDGWYGSTPKTLATFLDRTHKKHPELRIGISEYGAGASIYHQQDSLKQPSASGWWHPENWQTYYHMENWKIIAERPFVWGTFVWNMFDFGAAHRTEGDRPGINDKGLVTFDRKVRKDAFYFYKANWNKQEPMIYLAEKRCRLRYQPEQTFMAFTTAPEAELFVNGVSCGKQKADTYSTVVWKNVKLTSGENIIRVTTPGKKPLTDEVTVEYKEDREGHHHHHH", "soluble on expression in E. coli": "not soluble"}, {"sequence": "MNNSGADEIGKLFVGGLDWSTTQETLRSYFSQYGEVVDCVIMKDKTTNQSRGFGFVKFKDPNCVGTVLASRPHTLDGRNIDPKPCTPRGMQPERTRPKEGWQKGPRSDNSKSNKIFVGGIPHNCGETELREYFKKFGVVTEVVMIYDAEKQRPRGFGFITFEDEQSVDQAVNMHFHDIMGKKVEVKRAEPRDSKSQAPGQPGASQWGSRVVPNAANGWAGQPPPTWQQGYGPQGMWVPAGQAIGGYGPPPAGRGAPPPPPPFTSYIVSTPPGGFPPPQGFPQGYGAPPQFSFGYGPPPPPPDQFAPPGVPPPPATPGAAPLAFPPPPSQAAPDMSKPPTAQPDFPYGQYAGYGQDLSGFGQGFSDPSQQPPSYGGPSVPGSGGPPAGGSGFGRGQNHNVQGFHPYRR", "soluble on expression in E. coli": "soluble"}, {"sequence": "GKSDKIIPIAENKEAKAKYDILETYEAGIVLKGSEVKSLREKGTVSFKDSFVRIENGEAWLYNLYIAPYKHATIENHDPLRKRKLLLHKREIMRLYGKVQEKGYTIIPLKLYWKNNKVKVLIALAKGKKLYDRRRELKEKAMKRELEREFKGKIHL", "soluble on expression in E. coli": "soluble"}, {"sequence": "MSDTPSKKQKRRATIFVTGPQSKKTIFEGEEIKEEGNQTTLQDLAIARQRLHNELAVVNTTSGIEILMQIVMDELEVVRHRLRENGQRMRNFFGDGAVQIRAILIRIFSKSISSRNMLEYKKDAKVILNELCDQNITYKMPRYTLNDMEEILLTDDLEDGVIQRRSEKWECLPERQKPMFDEDEDAFCEFRKMNVPMSMTFDDDDEDRLSMPSTRTGVTALTTEDQMAAIQNQLAMLSKQLMCLQKSGVETKRASSRASSRRGGIIAKKASLEISSNSSSDVSEDEGKGPSVCSPSSSSKTSTASVQLAPMCMAPPPPPPPPLPKMSQKIPLSEIKSDNKLSTVTPSKPAEKKSSPKSLPPAETIVSNRPYLTDIAHGRSMLKKTVRSPGGSPACQVRHQKRPVSSFEAALRDRFRGFHGDASFSEQEENGEDDDLSATWDE", "soluble on expression in E. coli": "not soluble"}, {"sequence": "NYNHPFTQLGNQVFPTTPIVSGVRGRVVEVPVQANQPLKTGDILFKIDPVPFEAEVARLEAKVKEASQGALGLESDLREAEAAVLKAQADRDKAQREFSRYQRGFDRGAFTEQDLDTRRQAYKAAEAMLDVAILQQEQAQIALDSEIGGENTQVAQLLAELRKAEFNLEQTIVRAPTDGYVTQLALR", "soluble on expression in E. coli": "soluble"}, {"sequence": "MKIVRRDFVRNGPGSVKMVAEDSDDLWYAYNLIAVGDSVMAVTFRKVQREIPGGGRDSERVKLKLEVQVEEVDYDKDGSVLRIRGKNILENEHVKIGAFHTLELELKRPFVLRKEMWDSMALDTLKQASDPAASADLAVVLMQEGLAQIFLVGRSVTSSRARIETSIPRKHGPAIAGYESALKKFFENVLQAFVKHVDFSVVRCAVVASPGFTKDQFHRHLLLEAERRQLRPIIENKSRIILVHTNSGYRHSLGEVLHAPNVMNMIKDTKAAKEVKALNDFHNMLSTEPDRACYGPKHVEVANERMAIQTLLITDELFRNSDVKTRKKYVNLVESVKDSGGDAFIFSAMHVSGEQLAQLTGIAALLRFPLPELEDIEM", "soluble on expression in E. coli": "soluble"}, {"sequence": "MGSDKIHHHHHHMYNKFKLMAKIYLGPAGVPHSAKKKNTVEGIRTVKELGLNAMEVEFVQGVRMSKETAEETGQVARELGVRLSVHAPYFINLCSEEKEKIEASKQRILDTADRAELMGADAIAIHIAFYGKMTPEECYQNVKEGLEEVIDKAREMGIRNVKFGVETMAKETAFGTLDEVISISKELKGVIPYIDWAHTFARQGGEIDYGKIIDRLIKELGLTHINSHFESLVYRRGKYVDEHIPIDANAPPFEPLAKELLKRDISITLICESPELERDALKMKEVLERLGYRLE", "soluble on expression in E. coli": "not soluble"}, {"sequence": "MSGNGVKKVAEVAAKAGKAIDWEGMAKMLVSDEARKEFNTLRRTFEDVNHQLQTKFSQEPQPIDWEYYRKGIGSKVVDMYKEAYERTSCFVNPNVNAFCGTVICSEMHVLLCDLVNRSEDTKHEINAGIEIPKYVDTVTPQYKPKFDALLVELKEAEKESLKESERIEKELAELQEMKKNISTMTADEYFAKHPEVKQKFDDEIRNDNWGY", "soluble on expression in E. coli": "soluble"}, {"sequence": "MIIGYFDGLCEPKNPGGIATFGFVIYLDNRKIEGYGLAEKPFSINSTNNVAEYSGLICLMETMLRLGISSPIIKGDSQLVIKQMNGEYKVKAKRIIPLYEKAIELKKKLNATLIWVPREENKEADRLSRVAYELVRRGKLRDIGCIILT", "soluble on expression in E. coli": "soluble"}, {"sequence": "MAGDGSLVASFGDIDRATTVTTIVAGVGSSNPEGWNTYVDRARTVSASTGSATVLWLGYQAPASIPAAVSGAAANRAAADLQRFQAALQSRNPHQRKVVMGYSYGSTVVGKAASSGELSADALVLVGSPGAGVSHSSQLGAPVYAVTGSADPIGFAGTQYDGIHGTDPTAALFGATVWDSPSTHSGYWNDQEFLGNVAEVVRGKLEHHHHHH", "soluble on expression in E. coli": "not soluble"}, {"sequence": "MLLVMRAKQGKKTPKRKSQGVGNTQGQTPGSNDSDWVDQIGQSVSDGTQPDWSWNESAETASAAVSAQEVDPLTEYQVYKQFGYQGKAAESLAAYLDGIPDGEAKPENLIRELLDINLEVGDVDVLADNLQKYGKLILSELLAKYIEQALQRDSNHLRIRVLAEEGLGWGTQEIEKRAEGGSATAASASPPPDAGGKAYEAEEIKRIPIVRGKKDVSGISQEEIGAIAGLVRADQGAKILKDKVSYETASKQYDRAIQTSEKPANLIIDALKLDYQHADIDRFAGHLWKLYQTLGNYGRQVKERMLGWGYSLGYHEVFDDLEKGPNDRQIKDIGMGHGYLPKNIQKFKSQHRDLVLQDSSLINTGSSPADDAVKEVESLLMYGQIEAAMDVLEQAVLKYPDESQLYITLIDIYERTEDWDRLGQFLRVLRERADRLPEEVVMLMSRLLQRMNQNIKKIKRYGK", "soluble on expression in E. coli": "not soluble"}, {"sequence": "NVKHAFVDVQLAALPKMAYAAVDFVDYRFDNKHWKSLNEICPEVGLKPYADFAVLEVPLYLNNKLDYQVWENFIKPAIATYKALGDSTNLFASTSSSDLQNDTYFALGYPLLESNIDAIHFNQTGATLTSVPVKDRIKVKNQSFWTLN", "soluble on expression in E. coli": "not soluble"}, {"sequence": "MSLIYHRIAVNVPLSDGLLTYSHSDPLPPGTRVLVPFRNKTVVGMVWETDIAPDMDMARILSVQTAFVEEKPLPESWRDLLAFTSRYYHYPTGQAVFAALPQGLKETRAVEMPQPPLFYALNEAGRAQTPPPARFNKKAALWDALLSGGMTMAALKQVNAQAAKLIEDWAEQGWIETTEAAKPVLRSYHGQASHSEFVLNADQQQASDEIQTAFGSFQPFLLYGITGSGKTEVYFDAMAKVLAQGRQVLFLLPEINLTPQLLKRVENRFADVPTAVLHSQMAAGKRTQDYLRAMLGQAKLVIGTRLAVFTPMDDVGLIVVDEEHDGSFKQDNELRYHARDLAVWRAKQGGCPIILGSATPSLESWHKAQSGAYRLLQLTERAHTAAQLPQVDILNVGRLKLDNGFSPQALQLLKQNFEAGGMSLVYLNRRGFAPALFCGDCGYTFGCPNCSAKMVLHQRARQLRCHHCDHREPIPYKCPDCGNQDLTAVGHGTQRVEETLRTFLPKAAVVRVDRDSTAHKNDWADLYRRIADNKIDILVGTQMLAKGHDFARLNLVIVLNADGSLYSADFRAPERLFAELMQVSGRAGRADKPGKVLIQTQLPEHPVFAAVKAQDYAVFAENELNERQMFAMPPFGFQTAVRADAPRVADAMEFLNAAKETLAPLLPESVSQFGAAPMLMVRLAERERAQIFLESPSRQDLHRAVSLWAQVLQQNRDGKIRWSVDVDPQEAEGHHHHHH", "soluble on expression in E. coli": "not soluble"}, {"sequence": "MALAVRKQLLYELIDRLDETDHQTAYDFLMYLLDRSRKERMVWERIDETDEEEALTEEERQQLQSDEGYITGGEAKREFGLQVDLP", "soluble on expression in E. coli": "not soluble"}, {"sequence": "MDAVSKAAIRLLDTIGITGVTKVNTYAGPEQEYFLIDKKFYAQRPDLIMTGRTLLGALPPKGQQLEDHYFGSIPDRVLEFMQEVEEELFLLGIPAKTRHNEVAPHQFEIAPIFEQVNLASDHNLLVMEVMRKVADKKGFALLLFEKPFAGINGSGKHNNWSIGIDGGMNLLDPGDTPESNISFLVFLVAVLKGVLKRSAILRASVASIGNDHRLGANEAPPAVITVFLGDLLEKVLDAIESGKVDLKTEKQILDLGLSHVPVLNKDYTDRNRTSPFAFTGNKFEFRAVGSSQPISVPNMVLNTIMAEALDDLNAEILAKIEGGMAKEDAILAAVRDGIIATKAVRYPGDNYSEDLQRAAAERGLPNMKNTPESVRAWTDKDTVSMFVKYGVLTAEEIESRYNVRIERYVKGIDI", "soluble on expression in E. coli": "not soluble"}, {"sequence": "MHEFSIVQSLLTLIEDYARENNAKSVTKVVVSIGVLSGVEPHLLEMAFNTFKEGTVAEKAELIMEIEKLKIKCMDCGKESEKEELNMLCPGCGSLNTQIISGQDMFLKSLELEVD", "soluble on expression in E. coli": "soluble"}, {"sequence": "NLNSIQNFGAIDILCTDKTGTLTQDKVVLEYHLNVNGEDDTRVLRHAYLNSYFQTGYKNLMDLAIIHKTEEEEAADSRLIDLSENYVKVDEIPFDFTRRRLTTVVQDNKGKTQMVTKGAVEEMLSICAFAECNGGVQPLTDDVRYRILETVDNLNDKGFRVLAIAQKSNPSPIGAFGVKDECDMVLIGYLAFLDP", "soluble on expression in E. coli": "not soluble"}]}]}
